Assays:
[1] = biological target: FUS-mEmerald (UniProt P35637)
[2] = biological target: FUS-mEmerald (UniProt P35637); assay: tie line gradient analysis (FUS dilute phase concentration by confocal detection in a microfluidic flow cell); mEmerald-tagged FUS; DNAJB6 varied 0-4 µM; FUS dilute phase concentration read after phase separation

Chain of UniProt P35637 (P35637 whole entry): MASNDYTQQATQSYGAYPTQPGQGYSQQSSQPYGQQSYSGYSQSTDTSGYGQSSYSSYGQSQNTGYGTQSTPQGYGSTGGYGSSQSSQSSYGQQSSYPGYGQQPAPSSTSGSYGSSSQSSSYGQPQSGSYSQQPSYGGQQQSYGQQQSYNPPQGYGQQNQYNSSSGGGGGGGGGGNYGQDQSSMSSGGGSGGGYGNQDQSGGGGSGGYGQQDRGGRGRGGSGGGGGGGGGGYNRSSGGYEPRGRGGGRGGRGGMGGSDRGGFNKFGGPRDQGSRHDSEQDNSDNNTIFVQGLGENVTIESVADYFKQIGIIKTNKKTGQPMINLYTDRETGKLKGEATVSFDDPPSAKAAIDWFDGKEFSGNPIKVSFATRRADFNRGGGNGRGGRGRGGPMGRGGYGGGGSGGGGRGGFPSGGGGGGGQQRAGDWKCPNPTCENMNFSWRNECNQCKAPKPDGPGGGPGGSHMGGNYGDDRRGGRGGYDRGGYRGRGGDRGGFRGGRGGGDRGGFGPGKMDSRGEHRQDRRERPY

Substance: purified recombinant human DNAJB6 (from UniProt O75190 1-326) (natural protein)
- Young's modulus of FUS + DNAJB6 condensates by AFM, 2 h (~31 kPa) to 48 h; FUS-only condensates rise from ~9 kPa to ~25,000 kPa [1]: 40 kPa
- tie line gradient (µM DNAJB6 / µM FUS) [2]: 3

From PMC12638947
